{"source": "patent US20160146786A1", "about": "“Method of monitoring cellular trafficking of peptides” (PHYLOGICA LIMITED, priority 2013, published 2016)", "key": {"[1]": {"assay": "CD spectrophotometry of FITC-labelled peptides", "type": "physicochemical"}, "[2]": {"tested_on": "HEK-293 cells expressing GFP 11+GFP 1-10 fragments", "assay": "Effect of cargo peptides on reconstitution of split GFP activity, transfected constructs (FIG. 17)", "type": "cell-based, human", "conditions": "peptide fused to Sumo-GFP 11, expressed from transiently transfected constructs; independent of uptake", "source_text": "FIG. 17 is a graphical representation showing the effect of cargo proteins on reconstitution of split GFP activity in isolated HEK-293 cells expressing GFP 11+GFP 1-10 fragments. HEK-293 cells transfected with GFP 1-10 vectors pcDNA4/TO vector [TO hGFP1-10(a)] or pcDNA4/HM vector [HM hGFP1-10(a)] are shown on the abscissa. Relative fluorescence for each GFP 11 construct added to the cells, normalized for activity in the presence of the MyD88_S11 and mGFP1-10 constructs, is indicated on the y-axis. The GFP 11 constructs lacking cargo peptides were: MyD88-GFP 11 fusion (MyD88_S11); Mal-GFP 11 fusion (Mal_S11), β-actin-GFP 11 fusion β-actin_S11), and Sumo-GFP 11 fusion (Sumo_S11). […]\nThe inventors have also considered the effect of cargo protein on reconstitution of split GFP activity in isolated HEK-293 cells expressing GFP 11+GFP 1-10 fragments. HEK-293 cells were transfected with GFP 1-10 vectors pcDNA4/TO vector [TO hGFP1-10(a)] or pcDNA4/HM vector [HM hGFP1-10(a)], and recombinant GFP 11-encoding constructs were added to the cells, and fluorescence activity was determined as a normalized value relative to fluorescence obtained for transfections employing MyD88-GFP11 and mGFP1-10 constructs. […]"}, "[3]": {"target": "hGFP1-10(a) (humanized variant of commercially-available mGFP1-10, 'A' variant, expressed from pcDNA4/TO or pcDNA4/HM)", "assay": "cell-based or functional assay"}, "[4]": {"tested_on": "endosome", "conditions": "Sugita et al. 2008; cited from earlier work"}}, "data": [{"substance": "C20_ABH_0304_1746: identified CPP, 38 aa; Transposase fragment [Bordetella pertussis] (PLKPKKPKTQEKKKKQPPKPKKPKTQEKKKKQPPKPKR)", "values": [{"measurement": "CD spectral analysis, conformation", "setting": "[1]; NaF Buffer pH 7.2", "result": "Strong Beta-turn"}, {"measurement": "CD spectral analysis, conformation", "setting": "[1]; SDS Micelles pH 7.2", "result": "Strong Beta-turn"}]}, {"substance": "PYC35: cargo protein, which is not a CPP (RSDYKDDDDKAYQSIRSGGIESSSKRER)", "values": [{"measurement": "Decrease of Sumo_S11 fluorescence (reconstitution of split GFP activity)", "setting": "[2]", "result": "no-effect"}]}, {"substance": "T08_HBM_0104_0084: identified CPP, 33 aa (RKQKSLQTKLAENPPVPRKKRQSRPRWKQWLQK)", "values": [{"measurement": "CD spectral analysis, conformation", "setting": "[1]; NaF Buffer pH 7.2", "result": "Partially helical"}, {"measurement": "CD spectral analysis, conformation", "setting": "[1]; SDS Micelles pH 4.5", "result": "Helical"}, {"measurement": "CD spectral analysis, conformation", "setting": "[1]; SDS Micelles pH 7.2", "result": "Helical"}]}, {"substance": "T09_HBM_0103_0167: identified CPP, 32 aa (PSSTPATNVARPRLNPIRGHKFALAVPNSRTR)", "values": [{"measurement": "CD spectral analysis, conformation", "setting": "[1]; NaF Buffer pH 4.5", "result": "Random coil"}, {"measurement": "CD spectral analysis, conformation", "setting": "[1]; NaF Buffer pH 7.2", "result": "Coil with Beta-turn"}, {"measurement": "CD spectral analysis, conformation", "setting": "[1]; SDS Micelles pH 4.5", "result": "Random coil"}, {"measurement": "CD spectral analysis, conformation", "setting": "[1]; SDS Micelles pH 7.2", "result": "Coil with Beta-turn"}]}, {"substance": "TAT-Sumo-GFP 11 fusion", "values": [{"measurement": "decrease of GFP fluorescence (split GFP reconstitution) relative to Sumo S11 in transiently transfected HEK-293 cells", "setting": "[3]", "result": "> 50", "unit": "%"}]}, {"substance": "transferrin: named in cited endosome escape study", "values": [{"measurement": "Efficiency of endosome escape", "setting": "[4]", "result": "low"}]}]}
